Experimental data from PMC2699393 (EMBO Reports, 2009).

Biological target: T1, MBP–TIP150 (maltose-binding protein–tracking protein 150) (human, UniProt Q5JR59 1-1369)
T1 sequence (looked up): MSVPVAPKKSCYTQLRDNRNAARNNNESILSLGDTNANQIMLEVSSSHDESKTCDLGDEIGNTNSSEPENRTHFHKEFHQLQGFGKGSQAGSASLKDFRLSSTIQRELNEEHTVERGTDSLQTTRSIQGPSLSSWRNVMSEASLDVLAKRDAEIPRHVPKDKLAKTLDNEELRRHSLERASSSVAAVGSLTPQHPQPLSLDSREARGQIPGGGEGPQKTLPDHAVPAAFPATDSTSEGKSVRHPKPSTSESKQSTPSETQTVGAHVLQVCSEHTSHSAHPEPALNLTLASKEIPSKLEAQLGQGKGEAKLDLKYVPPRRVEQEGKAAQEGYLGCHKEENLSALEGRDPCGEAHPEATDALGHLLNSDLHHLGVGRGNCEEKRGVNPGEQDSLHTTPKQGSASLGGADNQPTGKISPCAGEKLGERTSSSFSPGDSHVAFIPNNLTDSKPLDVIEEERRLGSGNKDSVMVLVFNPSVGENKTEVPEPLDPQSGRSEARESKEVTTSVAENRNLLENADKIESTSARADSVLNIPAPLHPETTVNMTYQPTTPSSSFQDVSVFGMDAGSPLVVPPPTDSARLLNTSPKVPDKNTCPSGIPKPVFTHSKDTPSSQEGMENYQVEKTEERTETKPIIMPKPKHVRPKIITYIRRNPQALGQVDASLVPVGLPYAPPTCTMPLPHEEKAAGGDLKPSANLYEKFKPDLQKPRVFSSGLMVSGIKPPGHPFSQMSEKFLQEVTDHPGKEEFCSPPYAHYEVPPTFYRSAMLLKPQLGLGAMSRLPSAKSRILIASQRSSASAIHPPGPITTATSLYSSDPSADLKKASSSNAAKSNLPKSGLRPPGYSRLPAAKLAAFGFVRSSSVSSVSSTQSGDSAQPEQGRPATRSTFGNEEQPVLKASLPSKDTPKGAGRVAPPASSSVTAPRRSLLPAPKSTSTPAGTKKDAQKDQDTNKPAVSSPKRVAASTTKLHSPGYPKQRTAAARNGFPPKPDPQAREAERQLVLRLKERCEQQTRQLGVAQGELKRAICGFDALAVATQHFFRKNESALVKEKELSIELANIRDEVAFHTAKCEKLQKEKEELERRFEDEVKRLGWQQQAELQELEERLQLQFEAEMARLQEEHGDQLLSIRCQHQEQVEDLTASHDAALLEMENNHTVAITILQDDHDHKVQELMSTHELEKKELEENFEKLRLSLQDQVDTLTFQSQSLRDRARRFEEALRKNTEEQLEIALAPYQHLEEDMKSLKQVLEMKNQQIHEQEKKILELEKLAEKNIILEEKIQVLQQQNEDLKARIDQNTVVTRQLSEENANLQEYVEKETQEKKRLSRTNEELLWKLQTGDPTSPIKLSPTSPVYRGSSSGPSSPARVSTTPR
Assay: pull-down

binding result: binds
B1: GST–EB1 (glutathione-S-transferase–end-binding protein 1) (natural protein, human, UniProt Q15691 1-268, looked up)
chain: MAVNVYSTSVTSDNLSRHDMLAWINESLQLNLTKIEQLCSGAAYCQFMDMLFPGSIALKKVKFQAKLEHEYIQNFKILQAGFKRMGVDKIIPVDKLVKGKFQDNFEFVQWFKKFFDANYDGKDYDPVAARQGQETAVAPSLVAPALNKPKKPLTSSSAAPQRPISTQRTAAAPKAGPGVVRKNPGVGNGDDEAAELMQQVNVLKLTVEDLEKERDFYFGKLRNIELICQENEGENDPVLQRIVDILYATDEGFVIPDEGGPQEEQEEY
